# Test results published in article PMC3804942 (The Journal of Experimental Medicine, 2013).
# Where two headings read alike, the source gives them in different places.
# B1: ODN 787/788 20mer (dsDNA)
# DNA 1: CCATCAAAGAGAGAAAGAGC
# DNA 2: GCTCTTTCTCTCTTTGATGG
# B2: ODN 981/982 CpG 22mer (dsDNA)
# DNA 1: CTGCAACGATGCTACGAACGTG
# DNA 2: CACGTTCGTAGCATCGTTGCAG
# B3: Human RAGE V-C1 domain (residues 23-237) (domain or fragment)
# chain: AQNITARIGEPLVLKCKGAPKKPPQRLEWKLNTGRTEAWKVLSPQGGGPWDSVARVLPNGSLFLPAVGIQDEGIFRCQAMNRNGKETKSNYRVRVYQIPGKPEIVDSASELTAGVPNKVGTCVSEGSYPAGTLSWHLDGKPLVPNEKGVSVKEQTRRHPETGLFTLQSELMVTPARGGDPRPTFSCSFSPGLPRHRALRTAPIQPRVWEPVPLEE
# B4: ODN 752/753 vaccinia repeat 22mer (dsDNA)
# DNA 1: CCATGACTGTAGGAAACTCTAG
# DNA 2: GCTAGAGTTTCCTACAGTCATG
# Experiments:
# RAGE V domain (His) = RAGE V domain (His) (human, UniProt Q15109 23-121); experiment: AlphaScreen
# [1] = biological target: T1, RAGE extracellular domain V-C1-C2 (His) (human, UniProt Q15109 23-342); experiment: AlphaScreen
# RAGE mutant 0 = RAGE mutant 0 (UniProt Q15109 23-237, K110A;R178A;R179A); experiment: fluorescence polarization
# [2] = biological target: T1, RAGE extracellular domain V-C1-C2 (His); experiment: AlphaScreen; remark: listed apart in the source
# [3] = biological target: T2, RAGE V-C1 (crystallography) (human, UniProt Q15109 23-237); experiment: X-ray crystallography
# crystal structure = biological target: the molecule itself; experiment: crystal structure
# [4] = biological target: T2, RAGE V-C1 (crystallography); experiment: X-ray crystallography; remark: listed apart in the source
binder,measurement,setting,value
"TCGTCGTTTTGTCGTTTTGTCGTT (ssDNA, backbone of assayed form not in material; probably phosphorothioate) [ODN 2006 (CpG-B)]",binding result,RAGE V domain (His),binds
same,binding result,[1],binds
B1,binding result,RAGE mutant 0,binds
"GGGGACGACGTCGTGGGGGGG (ssDNA, phosphorothioate at positions marked * (G*G*GGACGACGTCGTGG*G*G*G*G*G)) [ODN 2336 (CpG-A)]",binding result,[2],binds
B2,binding result,[3],binds
B3,binding result,crystal structure,binds
B4,binding result,[4],binds
